Source: patent US20230338526A1 (BIO THERA SOLUTIONS, published 2023)

Columns and labels:
CD20 [1] = biological target: T1, CD20 (human, UniProt P11836 1-297); assay: cell-based or functional assay
T1 sequence (looked up): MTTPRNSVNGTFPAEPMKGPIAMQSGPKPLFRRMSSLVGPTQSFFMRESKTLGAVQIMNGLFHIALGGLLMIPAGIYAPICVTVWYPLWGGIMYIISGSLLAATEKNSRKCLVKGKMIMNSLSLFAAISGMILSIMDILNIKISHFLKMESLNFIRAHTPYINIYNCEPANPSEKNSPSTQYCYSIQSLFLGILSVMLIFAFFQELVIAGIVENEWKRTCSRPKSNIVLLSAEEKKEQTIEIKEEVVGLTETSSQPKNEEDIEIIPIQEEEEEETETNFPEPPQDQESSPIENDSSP

CD20 [2] = biological target: T1, CD20; assay: binding to CD20+ cells; method and cell line not stated
CD20 [3] = biological target: T1, CD20; assay: cell-based or functional assay; remark: listed apart in the source

B1: Rituximab (antibody, V domains shown)
VH: QVQLQQPGAELVKPGASVKMSCKASGYTFTSYNMHWVKQTPGRGLEWIGAIYPGNGDTSYNQKFKGKATLTADKSSSTAYMQLSSLTSEDSAVYYCARSTYYGGDWYFNVWGAGTTVTVSA
VL: QIVLSQSPAILSASPGEKVTMTCRASSSVSYIHWFQQKPGSSPKPWIYATSNLASGVPVRFSGSGSGTSYSLTISRVEAEDAATYYCQQWTSNPPTFGGGTKLEIK
ADCC, PBMC method (CD20 [1]): 0.0496 nM | ADCC, Reporter gene assay method (CD20 [1]): 0.019 nM | Binding to CD 20^+ cells (CD20 [2]): 10.2 nM | Percentage of whole blood B-cell depletion in vitro, 10 ng/ml (CD20 [3]): 17.8% | Percentage of whole blood B-cell depletion in vitro, 50 ng/ml (CD20 [3]): 36%
